Test results published in patent US20230250154A1 (CYTONICS, published 2023).
Where two headings read alike, the source gives them in different places.

T1: MMP7 (UniProt P09237 95-267, limits assumed)
T1 sequence (looked up): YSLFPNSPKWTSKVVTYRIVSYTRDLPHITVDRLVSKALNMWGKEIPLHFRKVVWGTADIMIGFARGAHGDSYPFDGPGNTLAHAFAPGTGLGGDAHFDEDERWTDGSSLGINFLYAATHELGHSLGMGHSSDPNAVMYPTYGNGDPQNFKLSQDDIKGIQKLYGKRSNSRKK

T2: MMP2 (human, UniProt P08253 110-660, limits assumed)
T2 sequence (looked up): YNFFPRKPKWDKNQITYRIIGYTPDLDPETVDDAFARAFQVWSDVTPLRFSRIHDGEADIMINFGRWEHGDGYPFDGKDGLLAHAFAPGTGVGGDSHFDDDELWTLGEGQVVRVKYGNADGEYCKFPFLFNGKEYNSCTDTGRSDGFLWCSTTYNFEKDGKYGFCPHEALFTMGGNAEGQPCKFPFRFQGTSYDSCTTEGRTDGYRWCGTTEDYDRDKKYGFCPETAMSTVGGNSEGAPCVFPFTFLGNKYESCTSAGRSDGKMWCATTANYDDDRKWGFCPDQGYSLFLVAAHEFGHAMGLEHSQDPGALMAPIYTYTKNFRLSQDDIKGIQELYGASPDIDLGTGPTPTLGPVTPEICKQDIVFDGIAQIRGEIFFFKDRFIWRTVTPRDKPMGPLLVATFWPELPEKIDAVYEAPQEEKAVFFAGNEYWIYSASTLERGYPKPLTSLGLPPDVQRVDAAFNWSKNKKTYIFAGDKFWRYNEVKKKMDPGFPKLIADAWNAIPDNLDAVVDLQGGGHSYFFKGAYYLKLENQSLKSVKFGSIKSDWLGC

T3: ADAMTS5 (human, UniProt Q9UNA0 262-622, limits assumed)
T3 sequence (looked up): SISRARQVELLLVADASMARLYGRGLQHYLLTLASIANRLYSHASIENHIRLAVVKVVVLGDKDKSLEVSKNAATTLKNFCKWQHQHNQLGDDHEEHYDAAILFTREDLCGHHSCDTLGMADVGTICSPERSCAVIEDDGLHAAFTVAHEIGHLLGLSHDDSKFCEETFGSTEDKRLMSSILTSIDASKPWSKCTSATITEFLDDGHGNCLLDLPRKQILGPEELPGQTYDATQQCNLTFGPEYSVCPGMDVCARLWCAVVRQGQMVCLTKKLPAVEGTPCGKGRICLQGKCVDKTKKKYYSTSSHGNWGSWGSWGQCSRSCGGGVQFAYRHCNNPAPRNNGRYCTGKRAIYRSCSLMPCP

T4: Cathepsin G (UniProt P08311 21-244)
T4 sequence (looked up): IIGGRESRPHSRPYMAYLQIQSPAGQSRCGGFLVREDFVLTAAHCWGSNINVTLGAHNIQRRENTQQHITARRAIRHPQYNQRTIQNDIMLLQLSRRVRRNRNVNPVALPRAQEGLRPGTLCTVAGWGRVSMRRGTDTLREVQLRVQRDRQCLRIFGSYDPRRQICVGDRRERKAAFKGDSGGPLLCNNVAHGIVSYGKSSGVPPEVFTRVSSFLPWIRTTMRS

T5: MMP1 (human, UniProt P03956 100-469, limits assumed)
T5 sequence (looked up): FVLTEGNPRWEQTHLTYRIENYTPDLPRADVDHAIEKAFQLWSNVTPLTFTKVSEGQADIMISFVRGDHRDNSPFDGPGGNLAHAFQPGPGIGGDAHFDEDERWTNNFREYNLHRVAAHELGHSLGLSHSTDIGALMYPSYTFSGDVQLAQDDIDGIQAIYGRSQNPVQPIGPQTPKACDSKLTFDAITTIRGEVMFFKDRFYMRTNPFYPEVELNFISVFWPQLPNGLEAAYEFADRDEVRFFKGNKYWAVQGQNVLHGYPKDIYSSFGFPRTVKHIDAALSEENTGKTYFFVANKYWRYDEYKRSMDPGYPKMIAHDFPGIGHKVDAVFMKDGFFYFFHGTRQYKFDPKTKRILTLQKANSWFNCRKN

T6: ADAMTS4 (human, UniProt O75173 213-685, limits assumed)
T6 sequence (looked up): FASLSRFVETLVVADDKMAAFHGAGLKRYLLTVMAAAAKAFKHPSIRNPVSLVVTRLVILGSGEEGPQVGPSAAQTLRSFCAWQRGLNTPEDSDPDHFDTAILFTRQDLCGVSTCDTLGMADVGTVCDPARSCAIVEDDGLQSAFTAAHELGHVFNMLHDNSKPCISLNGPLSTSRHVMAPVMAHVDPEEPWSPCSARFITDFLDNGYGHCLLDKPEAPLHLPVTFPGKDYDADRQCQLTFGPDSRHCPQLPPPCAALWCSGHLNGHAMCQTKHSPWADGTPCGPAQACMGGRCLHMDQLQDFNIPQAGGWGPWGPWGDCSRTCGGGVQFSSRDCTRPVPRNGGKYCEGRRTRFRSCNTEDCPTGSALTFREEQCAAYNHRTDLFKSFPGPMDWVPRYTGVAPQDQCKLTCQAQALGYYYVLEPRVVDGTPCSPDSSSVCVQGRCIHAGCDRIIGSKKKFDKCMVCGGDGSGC

B1: Variant A2M, bait region SEQ ID NO 15 (other)
chain: SVSGKPQYMVLVPSLLHTETTEKGCVLLSYLNETVTVSASLESVRGNRSLFTDLEAENDVLHCVAFAVPKSSSNEEVMFLTVQVKGPTQEFKKRTTVMVKNEDSLVFVQTDKSIYKPGQTVKFRVVSMDENFHPLNELIPLVYIQDPKGNRIAQWQSFQLEGGLKQFSFPLSSEPFQGSYKVVVQKKSGGRTEHPFTVEEFVLPKFEVQVTVPKIITILEEEMNVSVCGLYTYGKPVPGHVTVSICRKYSDASDCHGEDSQAFCEKFSGQLNSHGCFYQQVKTKVFQLKRKEYEMKLHTEAQIQEEGTVVELTGRQSSEITRTITKLSFVKVDSHFRQGIPFFGQVRLVDGKGVPIPNKVIFIRGNEANYYSNATTDEHGLVQFSINTTNVMGTSLTVRVNYKDRSPCYGYQWVSEEHEEAHHTAYLVFSPSKSFVHLEPMSHELPCGHTQTVQAHYILNGGTLLGLKKLSFYYLIMAKGGIVRTGTHGLLVKQEDMKGHFSISIPVKSDIAPVARLLIYAVLPTGDVIGDSAKYDVENCLANKVDLSFSPSQSLPASHAHLRVTAAPQSVCALRAVDQSVLLMKPDAELSASSVYNLLPEKDLTGFPGPLNDQDDEDCINRHNVYINGITYTPVSSTNEKDMYSFLEDMGLKAFTNSKIRKPKMCPQLEHGPEGEGEGEGIPENFFGVSEDLVVQISELEGRGSRYLTAVEEPHTKLRKYFPETWIWDLVVVNSAGVAEVGVTVPDTITEWKAGAFCLSEDAGLGISSTASLRAFQPFFVELTMPYSVIRGEAFTLKATVLNYLPKCIRVSVQLEASPAFLAVPVEKEQAPHCICANGRQTVSWAVTPKSLGNVNFTVSAEALESQELCGTEVPSVPEHGRKDTVIKPLLVEPEGLEKETTFNSLLCPSGGEVSEELSLKLPPNVVEESARASVSVLGDILGSAMQNTQNLLQMPYGCGEQNMVLFAPNIYVLDYLNETQQLTPEIKSKAIGYLNTGYQRQLNYKHYDGSYSTFGERYGRNQGNTWLTAFVLKTFAQARAYIFIDEAHITQALIWLSQRQKDNGCFRSSGSLLNNAIKGGVEDEVTLSAYITIALLEIPLTVTHPVVRNALFCLESAWKTAQEGDHGSHVYTKALLAYAFALAGNQDKRKEVLKSLNEEAVKKDNSVHWERPQKPKAPVGHFYEPQAPSAEVEMTSYVLLAYLTAQPAPTSEDLTSATNIVKWITKQQNAQGGFSSTQDTVVALHALSKYGAATFTRTGKAAQVTIQSSGTFSSKFQVDNNNRLLLQQVSLPELPGEYSMKVTGEGCVYLQTSLKYNILPEKEEFPFALGVQTLPQTCDEPKAHTSFQISLSVSYTGSRSASNMAIVDVKMVSGFIPLKPTVKMLERSNHVSRTEVSSNHVLIYLDKVSNQTLSLFFTVLQDVPVRDLKPAIVKVYDYYETDEFAIAEYNAPCSKDLGNADYKDDDDKGASHHHHHH
B2: Variant A2M, bait region SEQ ID NO 129 (other)
chain: SVSGKPQYMVLVPSLLHTETTEKGCVLLSYLNETVTVSASLESVRGNRSLFTDLEAENDVLHCVAFAVPKSSSNEEVMFLTVQVKGPTQEFKKRTTVMVKNEDSLVFVQTDKSIYKPGQTVKFRVVSMDENFHPLNELIPLVYIQDPKGNRIAQWQSFQLEGGLKQFSFPLSSEPFQGSYKVVVQKKSGGRTEHPFTVEEFVLPKFEVQVTVPKIITILEEEMNVSVCGLYTYGKPVPGHVTVSICRKYSDASDCHGEDSQAFCEKFSGQLNSHGCFYQQVKTKVFQLKRKEYEMKLHTEAQIQEEGTVVELTGRQSSEITRTITKLSFVKVDSHFRQGIPFFGQVRLVDGKGVPIPNKVIFIRGNEANYYSNATTDEHGLVQFSINTTNVMGTSLTVRVNYKDRSPCYGYQWVSEEHEEAHHTAYLVFSPSKSFVHLEPMSHELPCGHTQTVQAHYILNGGTLLGLKKLSFYYLIMAKGGIVRTGTHGLLVKQEDMKGHFSISIPVKSDIAPVARLLIYAVLPTGDVIGDSAKYDVENCLANKVDLSFSPSQSLPASHAHLRVTAAPQSVCALRAVDQSVLLMKPDAELSASSVYNLLPEKDLTGFPGPLNDQDDEDCINRHNVYINGITYTPVSSTNEKDMYSFLEDMGLKAFTNSKIRKPKMCPQLEQYEMHGPEAIPMSIPTEGEGEGEGIPENFFGVSEDLVVQIVEEPHTKLRKYFPETWIWDLVVVNSAGVAEVGVTVPDTITEWKAGAFCLSEDAGLGISSTASLRAFQPFFVELTMPYSVIRGEAFTLKATVLNYLPKCIRVSVQLEASPAFLAVPVEKEQAPHCICANGRQTVSWAVTPKSLGNVNFTVSAEALESQELCGTEVPSVPEHGRKDTVIKPLLVEPEGLEKETTFNSLLCPSGGEVSEELSLKLPPNVVEESARASVSVLGDILGSAMQNTQNLLQMPYGCGEQNMVLFAPNIYVLDYLNETQQLTPEIKSKAIGYLNTGYQRQLNYKHYDGSYSTFGERYGRNQGNTWLTAFVLKTFAQARAYIFIDEAHITQALIWLSQRQKDNGCFRSSGSLLNNAIKGGVEDEVTLSAYITIALLEIPLTVTHPVVRNALFCLESAWKTAQEGDHGSHVYTKALLAYAFALAGNQDKRKEVLKSLNEEAVKKDNSVHWERPQKPKAPVGHFYEPQAPSAEVEMTSYVLLAYLTAQPAPTSEDLTSATNIVKWITKQQNAQGGFSSTQDTVVALHALSKYGAATFTRTGKAAQVTIQSSGTFSSKFQVDNNNRLLLQQVSLPELPGEYSMKVTGEGCVYLQTSLKYNILPEKEEFPFALGVQTLPQTCDEPKAHTSFQISLSVSYTGSRSASNMAIVDVKMVSGFIPLKPTVKMLERSNHVSRTEVSSNHVLIYLDKVSNQTLSLFFTVLQDVPVRDLKPAIVKVYDYYETDEFAIAEYNAPCSKDLGNADYKDDDDKGASHHHHHH

Legend:
Assay in all cases: cell-based or functional assay
MMP9 = MMP9 (human, UniProt P14780 107-707, limits assumed)
MMP7 = target: T1, MMP7
MMP2 [1] = target: T2, MMP2
MMP3 = MMP3 (human, UniProt P08254 100-477, limits assumed)
ADAMTS5 = target: T3, ADAMTS5
Cathepsin G = target: T4, Cathepsin G
MMP1 [2] = target: T5, MMP1
ADAMTS4 = target: T6, ADAMTS4
Elastase [3] = target: Elastase
MMP13 = MMP13 (human, UniProt P45452 104-471, limits assumed)
MMP8 = MMP8 (human, UniProt P22894 101-467, limits assumed)
Elastase [4] = target: Elastase; remark: listed apart in the source
MMP2 [5] = target: T2, MMP2; remark: listed apart in the source
MMP1 [6] = target: T5, MMP1; remark: listed apart in the source

Chain of MMP9 (P14780 107-707 limits assumed): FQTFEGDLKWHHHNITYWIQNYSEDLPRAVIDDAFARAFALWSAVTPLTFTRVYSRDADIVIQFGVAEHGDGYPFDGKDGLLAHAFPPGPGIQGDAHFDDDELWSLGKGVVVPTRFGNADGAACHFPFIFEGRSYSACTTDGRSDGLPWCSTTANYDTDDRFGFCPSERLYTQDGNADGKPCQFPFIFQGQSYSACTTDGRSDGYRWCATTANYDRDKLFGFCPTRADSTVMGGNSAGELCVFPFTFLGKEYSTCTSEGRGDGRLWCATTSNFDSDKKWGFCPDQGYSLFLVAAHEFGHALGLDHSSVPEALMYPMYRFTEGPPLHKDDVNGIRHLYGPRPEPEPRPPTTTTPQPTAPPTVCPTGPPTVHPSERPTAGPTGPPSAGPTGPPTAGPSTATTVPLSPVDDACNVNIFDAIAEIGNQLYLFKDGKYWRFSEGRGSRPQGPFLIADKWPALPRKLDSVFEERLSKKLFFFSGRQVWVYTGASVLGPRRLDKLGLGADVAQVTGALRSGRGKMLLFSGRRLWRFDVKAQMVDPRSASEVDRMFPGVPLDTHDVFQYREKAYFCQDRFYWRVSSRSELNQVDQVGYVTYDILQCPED
Chain of MMP8 (P22894 101-467 limits assumed): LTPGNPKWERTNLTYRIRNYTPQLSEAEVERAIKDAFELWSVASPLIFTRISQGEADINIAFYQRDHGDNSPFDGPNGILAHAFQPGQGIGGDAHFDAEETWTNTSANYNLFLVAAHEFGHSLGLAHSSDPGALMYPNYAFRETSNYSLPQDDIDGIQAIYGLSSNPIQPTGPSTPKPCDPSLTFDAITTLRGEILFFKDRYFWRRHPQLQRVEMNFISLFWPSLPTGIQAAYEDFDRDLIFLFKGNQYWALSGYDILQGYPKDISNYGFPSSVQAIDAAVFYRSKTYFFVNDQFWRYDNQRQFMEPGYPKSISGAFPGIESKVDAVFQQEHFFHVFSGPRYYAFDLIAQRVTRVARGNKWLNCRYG
Chain of MMP3 (P08254 100-477 limits assumed): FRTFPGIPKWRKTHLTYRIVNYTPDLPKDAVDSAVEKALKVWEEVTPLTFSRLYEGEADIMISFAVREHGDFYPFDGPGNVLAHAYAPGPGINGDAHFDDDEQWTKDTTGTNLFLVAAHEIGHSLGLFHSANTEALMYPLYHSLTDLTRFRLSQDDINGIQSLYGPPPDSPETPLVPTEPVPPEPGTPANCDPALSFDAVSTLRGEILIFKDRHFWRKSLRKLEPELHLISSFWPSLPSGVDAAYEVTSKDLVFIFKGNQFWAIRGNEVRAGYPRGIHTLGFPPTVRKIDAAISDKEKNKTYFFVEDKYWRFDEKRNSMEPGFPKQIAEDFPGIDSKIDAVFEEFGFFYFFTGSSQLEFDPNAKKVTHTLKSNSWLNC

| Binder | Protease Inhibition (% of WT) (MMP9) | Protease Inhibition (% of WT) (MMP7) | Protease Inhibition (% of WT) (MMP2 [1]) | Protease Inhibition (% of WT) (MMP3) | Protease Inhibition (% of WT) (ADAMTS5) | Protease Inhibition (% of WT) (Cathepsin G) | Protease Inhibition (% of WT) (MMP1 [2]) | Protease Inhibition (% of WT) (ADAMTS4) | Protease Inhibition (% of WT) (Elastase [3]) | Protease Inhibition (% of WT) (MMP13) | Protease Inhibition (% of WT) (MMP8) | Protease Inhibition (% of WT) (Elastase [4]) | Protease Inhibition (% of WT) (MMP2 [5]) | Protease Inhibition (% of WT) (MMP1 [6]) |
| --- | --- | --- | --- | --- | --- | --- | --- | --- | --- | --- | --- | --- | --- | --- |
| B1 | 41 % of WT | 157 % of WT | 59 % of WT | 40 % of WT | 183 % of WT | 139 % of WT | 116 % of WT | 83 % of WT | 115 % of WT | 143 % of WT | 77 % of WT | – | – | – |
| B2 | – | – | – | – | – | – | – | – | – | – | – | 75 % of WT | 20 % of WT | 200 % of WT |
